Data published in US20250026846A1 (JCR PHARMACEUTICALS, published 2025).

T1: recombinant monkey TfR (r monkey TfR: Sino Biological Inc.), crab-eating monkey TfR extracellular region with … (crab-eating monkey (Macaca fascicularis))
T1 construct: Bought from Sino Biological; also called r monkey TfR-ECD (Histag); not shown: histidine tag at the N-terminus
T1 chain: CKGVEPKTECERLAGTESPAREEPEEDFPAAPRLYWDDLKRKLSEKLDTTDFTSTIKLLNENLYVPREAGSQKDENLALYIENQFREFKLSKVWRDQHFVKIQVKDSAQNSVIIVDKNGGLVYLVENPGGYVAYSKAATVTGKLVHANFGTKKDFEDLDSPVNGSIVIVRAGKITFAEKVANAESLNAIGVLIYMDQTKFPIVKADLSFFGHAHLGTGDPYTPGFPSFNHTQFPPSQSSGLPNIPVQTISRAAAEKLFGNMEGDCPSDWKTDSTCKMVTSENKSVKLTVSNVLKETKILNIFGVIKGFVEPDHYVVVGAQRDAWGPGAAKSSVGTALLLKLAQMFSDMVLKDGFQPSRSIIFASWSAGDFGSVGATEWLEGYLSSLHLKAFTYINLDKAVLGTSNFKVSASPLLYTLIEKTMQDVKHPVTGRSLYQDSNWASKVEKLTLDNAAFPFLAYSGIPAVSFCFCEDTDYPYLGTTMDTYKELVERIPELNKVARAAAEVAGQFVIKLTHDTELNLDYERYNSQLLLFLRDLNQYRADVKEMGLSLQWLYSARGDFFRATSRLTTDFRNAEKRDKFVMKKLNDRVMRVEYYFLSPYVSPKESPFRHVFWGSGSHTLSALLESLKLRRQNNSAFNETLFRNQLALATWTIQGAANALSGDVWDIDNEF

B1: Fab GS3-GBA (other)
light: DIVMTQTPLSLSVTPGQPASISCRSSQSLVHSNGNTYLHWYLQKPGQSPQLLIYKVSNRFSGVPDRFSGSGSGTDFTLKISRVEAEDVGVYYCSQSTHVPWTFGQGTKVEIKRTVAAPSVFIFPPSDEQLKSGTASVVCLLNNFYPREAKVQWKVDNALQSGNSQESVTEQDSKDSTYSLSSTLTLSKADYEKHKVYACEVTHQGLSSPVTKSFNRGEC
heavy: EVQLVQSGAEVKKPGESLKISCKGSGYSFMNYWLGWVRQMPGKGLEWMGDIYPGGDYPTYSEKFKVQVTISADKSISTAYLQLSSLKASDTAMYYCARSGNYDEVAYWGQGTLVTVSSASTKGPSVFPLAPSSKSTSGGTAALGCLVKDYFPEPVTVSWNSGALTSGVHTFPAVLQSSGLYSLSSVVTVPSSSLGTQTYICNVNHKPSNTKVDKKVEPKSCDKTHTGGGGSGGGGSGGGGSARPCIPKSFGYSSVVCVCNATYCDSFDPPTFPALGTFSRYESTRSGRRMELSMGPIQANHTGTGLLLTLQPEQKFQKVKGFGGAMTDAAALNILALSPPAQNLLLKSYFSEEGIGYNIIRVPMASCDFSIRTYTYADTPDDFQLHNFSLPEEDTKLKIPLIHRALQLAQRPVSLLASPWTSPTWLKTNGAVNGKGSLKGQPGDIYHQTWARYFVKFLDAYAEHKLQFWAVTAENEPSAGLLSGYPFQCLGFTPEHQRDFIARDLGPTLANSTHHNVRLLMLDDQRLLLPHWAKVVLTDPEAAKYVHGIAVHWYLDFLAPAKATLGETHRLFPNTMLFASEACVGSKFWEQSVRLGSWDRGMQYSHSIITNLLYHVVGWTDWNLALNPEGGPNWVRNFVDSPIIVDITKDTFYKQPMFYHLGHFSKFIPEGSQRVGLVASQKNDLDAVALMHPDGSAVVVVLNRSSKDVPLTIKDPAVGFLETISPGYSIHTYLWRRQ
notes: also called Fab HC-GS3-GBA
B2: Fab GS3-GUSB (other)
light: B1 light
heavy: EVQLVQSGAEVKKPGESLKISCKGSGYSFMNYWLGWVRQMPGKGLEWMGDIYPGGDYPTYSEKFKVQVTISADKSISTAYLQLSSLKASDTAMYYCARSGNYDEVAYWGQGTLVTVSSASTKGPSVFPLAPSSKSTSGGTAALGCLVKDYFPEPVTVSWNSGALTSGVHTFPAVLQSSGLYSLSSVVTVPSSSLGTQTYICNVNHKPSNTKVDKKVEPKSCDKTHTGGGGSGGGGSGGGGSLQGGMLYPQESPSRECKELDGLWSFRADFSDNRRRGFEEQWYRRPLWESGPTVDMPVPSSFNDISQDWRLRHFVGWVWYEREVILPERWTQDLRTRVVLRIGSAHSYAIVWVNGVDTLEHEGGYLPFEADISNLVQVGPLPSRLRITIAINNTLTPTTLPPGTIQYLTDTSKYPKGYFVQNTYFDFFNYAGLQRSVLLYTTPTTYIDDITVTTSVEQDSGLVNYQISVKGSNLFKLEVRLLDAENKVVANGTGTQGQLKVPGVSLWWPYLMHERPAYLYSLEVQLTAQTSLGPVSDFYTLPVGIRTVAVTKSQFLINGKPFYFHGVNKHEDADIRGKGFDWPLLVKDFNLLRWLGANAFRTSHYPYAEEVMQMCDRYGIVVIDECPGVGLALPQFFNNVSLHHHMQVMEEVVRRDKNHPAVVMWSVANEPASHLESAGYYLKMVIAHTKSLDPSRPVTFVSNSNYAADKGAPYVDVICLNSYYSWYHDYGHLELIQLQLATQFENWYKKYQKPIIQSEYGAETIAGFHQDPPLMFTEEYQKSLLEQYHLGLDQKRRKYVVGELIWNFADFMTEQSPTRVLGNKKGIFTRQRQPKSAAFLLRERYWKIANETRYPHSVAKSQCLENSLFT
notes: also called Fab HC-GS3-GUSB
B3: Fab GS3-GALC (other)
light: B1 light
heavy: EVQLVQSGAEVKKPGESLKISCKGSGYSFMNYWLGWVRQMPGKGLEWMGDIYPGGDYPTYSEKFKVQVTISADKSISTAYLQLSSLKASDTAMYYCARSGNYDEVAYWGQGTLVTVSSASTKGPSVFPLAPSSKSTSGGTAALGCLVKDYFPEPVTVSWNSGALTSGVHTFPAVLQSSGLYSLSSVVTVPSSSLGTQTYICNVNHKPSNTKVDKKVEPKSCDKTHTGGGGSGGGGSGGGGSYVLDDSDGLGREFDGIGAVSGGGATSRLLVNYPEPYRSQILDYLFKPNFGASLHILKVEIGGDGQTTDGTEPSHMHYALDENYFRGYEWWLMKEAKKRNPNITLIGLPWSFPGWLGKGFDWPYVNLQLTAYYVVTWIVGAKRYHDLDIDYIGIWNERSYNANYIKILRKMLNYQGLQRVKIIASDNLWESISASMLLDAELFKVVDVIGAHYPGTHSAKDAKLTGKKLWSSEDFSTLNSDMGAGCWGRILNQNYINGYMTSTIAWNLVASYYEQLPYGRCGLMTAQEPWSGHYVVESPVWVSAHTTQFTQPGWYYLKTVGHLEKGGSYVALTDGLGNLTIIIETMSHKHSKCIRPFLPYFNVSQQFATFVLKGSFSEIPELQVWYTKLGKTSERFLFKQLDSLWLLDSDGSFTLSLHEDELFTLTTLTTGRKGSYPLPPKSQPFPSTYKDDFNVDYPFFSEAPNFADQTGVFEYFTNIEDPGEHHFTLRQVLNQRPITWAADASNTISIIGDYNWTNLTIKCDVYIETPDTGGVFIAGRVNKGGILIRSARGIFFWIFANGSYRVTGDLAGWIIYALGRVEVTAKKWYTLTLTIKGHFTSGMLNDKSLWTDIPVNFPKNGWAAIGTHSFEFAQFDNFLVEATR
notes: also called Fab HC-GS3-GALC
B4: Fab GS3-AC (other)
light: B1 light
heavy: EVQLVQSGAEVKKPGESLKISCKGSGYSFMNYWLGWVRQMPGKGLEWMGDIYPGGDYPTYSEKFKVQVTISADKSISTAYLQLSSLKASDTAMYYCARSGNYDEVAYWGQGTLVTVSSASTKGPSVFPLAPSSKSTSGGTAALGCLVKDYFPEPVTVSWNSGALTSGVHTFPAVLQSSGLYSLSSVVTVPSSSLGTQTYICNVNHKPSNTKVDKKVEPKSCDKTHTGGGGSGGGGSGGGGSQHAPPWTEDCRKSTYPPSGPTYRGAVPWYTINLDLPPYKRWHELMLDKAPVLKVIVNSLKNMINTFVPSGKIMQVVDEKLPGLLGNFPGPFEEEMKGIAAVTDIPLGEIISFNIFYELFTICTSIVAEDKKGHLIHGRNMDFGVFLGWNINNDTWVITEQLKPLTVNLDFQRNNKTVFKASSFAGYVGMLTGFKPGLFSLTLNERFSINGGYLGILEWILGKKDVMWIGFLTRTVLENSTSYEEAKNLLTKTKILAPAYFILGGNQSGEGCVITRDRKESLDVYELDAKQGRWYVVQTNYDRWKHPFFLDDRRTPAKMCLNRTSQENISFETMYDVLSTKPVLNKLTVYTTLIDVTKGQFETYLRDCPDPCIGW
notes: also called Fab HC-GS3-AC
B5: Fab GS3-NAGLU (other)
light: B1 light
heavy: EVQLVQSGAEVKKPGESLKISCKGSGYSFMNYWLGWVRQMPGKGLEWMGDIYPGGDYPTYSEKFKVQVTISADKSISTAYLQLSSLKASDTAMYYCARSGNYDEVAYWGQGTLVTVSSASTKGPSVFPLAPSSKSTSGGTAALGCLVKDYFPEPVTVSWNSGALTSGVHTFPAVLQSSGLYSLSSVVTVPSSSLGTQTYICNVNHKPSNTKVDKKVEPKSCDKTHTGGGGSGGGGSGGGGSDEAREAAAVRALVARLLGPGPAADFSVSVERALAAKPGLDTYSLGGGGAARVRVRGSTGVAAAAGLHRYLRDFCGCHVAWSGSQLRLPRPLPAVPGELTEATPNRYRYYQNVCTQSYSFVWWDWARWEREIDWMALNGINLALAWSGQEAIWQRVYLALGLTQAEINEFFTGPAFLAWGRMGNLHTWDGPLPPSWHIKQLYLQHRVLDQMRSFGMTPVLPAFAGHVPEAVTRVFPQVNVTKMGSWGHFNCSYSCSFLLAPEDPIFPIIGSLFLRELIKEFGTDHIYGADTFNEMQPPSSEPSYLAAATTAVYEAMTAVDTEAVWLLQGWLFQHQPQFWGPAQIRAVLGAVPRGRLLVLDLFAESQPVYTRTASFQGQPFIWCMLHNFGGNHGLFGALEAVNGGPEAARLFPNSTMVGTGMAPEGISQNEVVYSLMAELGWRKDPVPDLAAWVTSFAARRYGVSHPDAGAAWRLLLRSVYNCSGEACRGHNRSPLVRRPSLQMNTSIWYNRSDVFEAWRLLLTSAPSLATSPAFRYDLLDLTRQAVQELVSLYYEEARSAYLSKELASLLRAGGVLAYELLPALDEVLASDSRFLLGSWLEQARAAAVSEAEADFYEQNSRYQLTLWGPEGNILDYANKQLAGLVANYYTPRWRLFLEALVDSVAQGIPFQQHQFDKNVFQLEQAFVLSKQRYPSQPRGDTVDLAKKIFLKYYPRWVAGSW
notes: also called Fab HC-GS3-NAGLU

Target: T1, recombinant monkey TfR (r monkey TfR: …)
Assay: BLI (Octet RED96), His-tagged TfR ECD on Ni-NTA sensor

kon [M⁻¹ s⁻¹] | Kd [nM] | koff [s⁻¹] | Binder
299000 |  |  | B1
250000 | < 0.001 | < 1e-07 | B2
111000 | 1.4 | 0.000154 | B3
277000 | ~11.8 | ~0.00327 | B4
154000 | 2.62 | 0.000402 | B5

What follows are binders tested against T2, recombinant human TfR (r human TfR: Sino Biological Inc.), hTfR extracellular region with a histidine tag at … (human, UniProt P02786 89-760) in the same assay as above.
T2 construct: Bought from Sino Biological; also called r human TfR-ECD (Histag); recombinant hTfR; not shown: histidine tag at the N-terminus

Kd [nM] | koff [s⁻¹] | kon [M⁻¹ s⁻¹] | Binder
< 0.001 | < 1e-07 | 623000 | B1
< 0.001 | < 1e-07 | 449000 | B2
< 0.001 | < 1e-07 | 224000 | B3
0.209 | 0.000105 | 501000 | B4
< 0.001 | < 1e-07 | 291000 | B5
